Measured values reported in patent publication US20170097333A1 (Merck Sharp & Dohme, published 2017).

Experiments:
[1] = target: human CD3 (human) (UniProt P07766); test: FACS staining of Jurkat clone A1, relative to control antibody mIgG1 pacblue
[2] = target: human CD3 (human) (UniProt P07766); test: FACS staining of Jurkat clone F5, relative to control antibody mIgG1 pacblue
[3] = target: human CD3 (human) (UniProt P07766); test: FACS staining of Jurkat clone G3, relative to control antibody mIgG1 pacblue
[4] = target: human CD3 (human) (UniProt P07766); test: FACS staining of Jurkat clone F11, relative to control antibody mIgG1 pacblue
[5] = target: human CD3 (human) (UniProt P07766); test: FACS staining of Jurkat clone G10 (passage P4), relative to control antibody mIgG1-pacblue
[6] = target: human CD3 (human) (UniProt P07766); test: FACS staining of Jurkat clone H3, relative to control antibody mIgG1 pacblue
[7] = target: human CD3 (human) (UniProt P07766); test: FACS staining of Jurkat clone G10 (passage P17), relative to control antibody mIgG1-pacblue
[8] = target: human CD3 (human) (UniProt P07766); test: FACS staining of Jurkat clone E6, relative to control antibody mIgG1 pacblue
[9] = target: human CD3 (human) (UniProt P07766); test: FACS staining of Jurkat clone G10 (passage ~P3), relative to control antibody mIgG1-pacblue
[10] = target: human CD3 (human) (UniProt P07766); test: FACS staining of Jurkat clone G10, relative to control antibody mIgG1 pacblue
[11] = target: human CD3 (human) (UniProt P07766); test: FACS staining of Jurkat clone D7, relative to control antibody mIgG1 pacblue
[12] = target: human CD3 (human) (UniProt P07766); test: FACS staining of Jurkat clone G10 (passage P6), relative to control antibody mIgG1-pacblue
[13] = target: human CD3 (human) (UniProt P07766); test: FACS staining of Jurkat clone G10 (passage P14), relative to control antibody mIgG1-pacblue
[14] = target: human CD3 (human) (UniProt P07766); test: FACS staining of Jurkat clone G10 (passage P12), relative to control antibody mIgG1-pacblue
[15] = target: T1, human LAG3 (human, UniProt P18627 23-525); test: FACS staining of human LAG3 Jurkat clone G10 (passage P12), relative to control antibody Herceptin-DyLight 650
T1 construct: Expressed from a transgene on Jurkat cells
T1 sequence: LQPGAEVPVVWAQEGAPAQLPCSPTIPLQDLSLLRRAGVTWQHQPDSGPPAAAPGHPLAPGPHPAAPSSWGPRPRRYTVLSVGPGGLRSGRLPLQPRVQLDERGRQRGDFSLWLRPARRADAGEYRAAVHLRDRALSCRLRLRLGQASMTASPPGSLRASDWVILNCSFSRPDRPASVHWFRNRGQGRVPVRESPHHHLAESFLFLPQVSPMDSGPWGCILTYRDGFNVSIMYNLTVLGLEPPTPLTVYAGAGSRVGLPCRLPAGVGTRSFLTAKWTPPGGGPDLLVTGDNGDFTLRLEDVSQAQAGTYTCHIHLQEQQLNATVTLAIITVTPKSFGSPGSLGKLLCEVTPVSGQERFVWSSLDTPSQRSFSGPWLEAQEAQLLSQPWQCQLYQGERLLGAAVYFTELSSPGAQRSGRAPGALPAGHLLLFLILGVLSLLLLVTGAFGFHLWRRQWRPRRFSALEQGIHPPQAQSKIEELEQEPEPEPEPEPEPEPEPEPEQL

[16] = target: T1, human LAG3; test: FACS staining of human LAG3 Jurkat clone G10 (passage P14), relative to control antibody Herceptin-DyLight 650
[17] = target: T1, human LAG3; test: FACS staining of human LAG3 Jurkat clone G10 (passage ~P3), relative to control antibody Herceptin-DyLight 650
[18] = target: T1, human LAG3; test: FACS staining of human LAG3 Jurkat clone G10 (passage P17), relative to control antibody Herceptin-DyLight 650
[19] = target: T1, human LAG3; test: FACS staining of human LAG3 Jurkat clone G10 (passage P4), relative to control antibody Herceptin-DyLight 650
[20] = target: T1, human LAG3; test: FACS staining of human LAG3 Jurkat clone G10 (passage P6), relative to control antibody Herceptin-DyLight 650

human CD3 (human), sequence (P07766 23-207): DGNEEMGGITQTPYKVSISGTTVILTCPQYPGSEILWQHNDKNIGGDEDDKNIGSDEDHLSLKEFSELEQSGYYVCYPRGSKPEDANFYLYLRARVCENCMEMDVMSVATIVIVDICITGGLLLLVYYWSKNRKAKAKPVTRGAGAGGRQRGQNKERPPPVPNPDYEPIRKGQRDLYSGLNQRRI

maHuCD3 pacblue (mouse anti-human CD3E antibody Clone SP34-2)
CD3 expression (Fold Change) [1]: 3.5 fold | CD3 expression (Fold Change) [2]: 7.5 fold | CD3 expression (Fold Change) [3]: 5.3 fold | CD3 expression (Fold Change) [4]: 3.9 fold | CD3 expression (Fold Change) [5]: 7.2 fold | CD3 expression (Fold Change) [6]: 5 fold | CD3 expression (Fold Change) [7]: 4.7 fold | CD3 expression (Fold Change) [8]: 8.5 fold | CD3 expression (Fold Change) [9]: 10.9 fold | CD3 expression (Fold Change) [10]: 8.4 fold | CD3 expression (Fold Change) [11]: 3.4 fold | CD3 expression (Fold Change) [12]: 8 fold | CD3 expression (Fold Change) [13]: 6.9 fold | CD3 expression (Fold Change) [14]: 6.4 fold

B1: Ab6: humanized anti-human LAG3 VH6 N55D/VL3, IgG4 S228P/Kappa (antibody, V domains shown)
VH: QMQLVQSGPEVKKPGTSVKVSCKASGYTFTDYNVDWVRQARGQRLEWIGDINPNDGGTIYAQKFQERVTITVDKSTSTAYMELSSLRSEDTAVYYCARNYRWFGAMDHWGQGTTVTVSS
VL: DIVMTQTPLSLSVTPGQPASISCKASQSLDYEGDSDMNWYLQKPGQPPQLLIYGASNLESGVPDRFSGSGSGTDFTLKISRVEAEDVGVYYCQQSTEDPRTFGGGTKVEIKR
notes: also called 51AHH; light chain 45AGX
Lag3 Expression (Fold Change) [15]: 7.3 fold | Lag3 Expression (Fold Change) [16]: 7.2 fold | Lag3 Expression (Fold Change) [17]: 6.1 fold | Lag3 Expression (Fold Change) [18]: 7.3 fold | Lag3 Expression (Fold Change) [19]: 5.6 fold | Lag3 Expression (Fold Change) [20]: 2 fold
